Test results as given in patent US20230086603A1 (BOLT BIOTHERAPEUTICS, published 2023).

B1: PD-L1 binding agent 10 (antibody, V domains shown)
VH: QVQLVQSGAEVKKPGASVKVSCKASGYTFTGYYMHWVRQAPGQGLEWIGWMSLNSGLTGYAQKFQGRVTMTRDTSTSTVYMELSSLRSEDTAVYYCARDRGWFDPWGQGTLVTVSS
VL: DIQMTQSPSSLSASVGDRVTITCRASQSISSWLAWYQQKPGKAPKLLIYAASTLESGVPSRFSGSGSGTDFTLTISSLQPEDFATYYCQQSYTTPYSFGGGTKVEIK
B2: PD-L1 binding agent 21 (antibody, V domains shown)
VH: QVQLVQSGAEVKKPGASVKVSCKASGYTFTSHYMHWVRQAPGQGLEWMGWMNPNSGHTGNAQKFQGRVTMTRDTSTSTVYMELSSLRSEDTAVYYCARGNWVDAFDIWGQGTMVTVSS
VL: DIQMTQSPSSLSASVGDRVTITCRASQGIRNDLAWYQQKPGKAPKLLIYAASTLQSGVPSRFSGSGSGTDFTLTISSLQPEDFATYYCQQSYSTPLTFGGGTKVEIK
B3: 31 (antibody, V domains shown)
VH: QVQLVQSGAEVKKPGASVKVSCKASGYTFTSYYMHWVRQAPGQGLEWMGWLTPSTGHAGYAQKFQGRVTMTRDTSTSTVYMELSSLRSEDTAVYYCAREGYGGNYGNWGQGTLVTVSS
VL: DIQMTQSPSSLSASVGDRVTITCRASQSISPWLAWYQQKPGKAPKLLIYDASNLETGVPSRFSGSGSGTDFTLTISSLQPEDFATYYCQQTYSTPITFGQGTRLEIK
B4: 69 (antibody, V domains shown)
VH: QVQLVQSGAEVKKPGASVKVSCKASGYTFTSYYMHWVRQAPGQGLEWMGWINPNSGNTGYAQKFQGRVTMTRDTSTSTVYMELSSLRSEDTAVYYCARDDWGGDWFDYWGQGTLVTVSS
VL: DIQMTQSPSSLSASVGDRVTITCQASQDISNHLNWYQQKPGKAPKLLIYGASNLQRGVPSRFSGSGSGTDFTLTISSLQPEDFATYYCQQSYSTPITFGQGTRLEIK
B5: 34 (antibody, V domains shown)
VH: QVQLVQSGAEVKKPGASVKVSCKASGYTFTRHLLHWVRQAPGQGLEWMGWISPQHGVRNYAHKFQGRVTMTRDTSTSTVYMELSSLRSEDTAVYYCARESVEGYFDLWGRGTLVTVSS
VL: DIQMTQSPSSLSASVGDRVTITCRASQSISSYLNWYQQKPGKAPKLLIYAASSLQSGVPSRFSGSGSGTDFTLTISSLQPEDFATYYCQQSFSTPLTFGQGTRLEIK
B6: 66 (antibody, V domains shown)
VH: QVQLVQSGAEVKKPGASVKVSCKASGYTFSSYYMHWVRQAPGQGLEWMGWITTNSGITGYAQKFQGRVTMTRDTSTSTVYMELSSLRSEDTAVYYCAREGYSSGLDYWGQGTLVTVSS
VL: not shown
B7: 67 (antibody, V domains shown)
VH: QVQLVQSGAEVKKPGASVKVSCKASGYTFSTHYMHWVRQAPGQGLEWMGWINPNSGHAGSAQKFQGRVTMTRDTSTSTVYMELSSLRSEDTAVYYCARESIAVAGYDYWGQGTLVTVSS
VL: DIQMTQSPSSLSASVGDRVTITCRASQSISSWLAWYQQKPGKAPKLLIYAASTLQRGVPSRFSGSGSGTDFTLTISSLQPEDFATYYCQQSYSTPYTFGQGTKLEIK
B8: 35 (antibody, V domains shown)
VH: QVQLVQSGAEVKKPGASVKVSCKASGYPFSSYYMHWVRQAPGQGLEWMGMINPSGGSTSYAQKFQGRVTMTRDTSTSTVYMELSSLRSEDTAVYYCARDIFPTMIAGGGFDLWGRGTLVTVSS
VL: DIQMTQSPSSLSASVGDRVTITCRASQSISSWLAWYQQKPGKAPKLLIYDASNLETGVPSRFSGSGSGTDFTLTISSLQPEDFATYYCQQSYSTPPTFGQGTKVEIK
B9: 30 (antibody, V domains shown)
VH: QVQLVQSGAEVKKPGASVKVSCKASGYPFSTYYMHWVRQAPGQGLEWMGWMNPHSADTGYAEKFQGRVTMTRDTSTSTVYMELSSLRSEDTAVYYCAREVFEGGMDVWGQGTTVTVSS
VL: DIQMTQSPSSLSASVGDRVTITCRASQSVGSWVAWYQQKPGKAPKLLIYPASTLQSGVPSRFSGSGSGTDFTLTISSLQPEDFATYYCQQSYSTPLTFGGGTKVEIK
B10: 68 (antibody, V domains shown)
VH: QVQLVQSGAEVKKPGASVKVSCKASGYTFTGYYMHWVRQAPGQGLEWMGWINPNSGTTGYAQNFQGRVTMTRDTSTSTVYMELSSLRSEDTAVYYCAREGFGPNAFDIWGQGTTVTVSS
VL: DIQMTQSPSSLSASVGDRVTITCRASQSISSWLAWYQQKPGKAPKLLIYAASNLQSGVPSRFSGSGSGTDFTLTISSLQPEDFATYYCQQYYSTPYTFGQGTKVEIK
B11: 5 (antibody, V domains shown)
VH: QVQLVQSGAEVKKPGASVKVSCKASGYTFNRFMHWVRQAPGQGLEWMGWMSLNSGLTGYAQKFQGRVTMTRDTSTSTVYMELSSLRSEDTAVYYCTRGTYNDAFDIWGQGTLVTVSS
VL: DIQMTQSPSSLSASVGDRVTITCRASQTISNYLNWYQQKPGKAPKLLIYAASSLQSGVPSRFSGSGSGTDFTLTISSLQPEDFATYYCQQSYTTPITFGGGTKVEIK
B12: 4 (antibody, V domains shown)
VH: QVQLVQSGAEVKKPGASVKVSCKASGYTFTSHHMHWVRQAPGQGLEWMGWVSPSHGLTGYAQKFQGRVTMTRDTSTSTVYMELSSLRSEDTAVYYCARDNWNVHDAFDIWGQGTLVTVSS
VL: DIQMTQSPSSLSASVGDRVTITCRASQGISSYLAWYQQKPGKAPKLLIYGASNLQSGVPSRFSGSGSGTDFTLTISSLQPEDFATYYCQQSYSTPLTFGGGTKVEIK
B13: 32 (antibody, V domains shown)
VH: QVQLVQSGAEVKKPGASVKVSCKASGYTFTSYYMHWVRQAPGQGLEWMGWMNPNSGHTGYAQKFQGRVTMTRDTSTSTVYMELSSLRSEDTAVYYCAREDFYGDFDYWGQGTLVTVSS
VL: DIQMTQSPSSLSASVGDRVTITCRASQGISRYLAWYQQKPGKAPKLLIYAASTLQSGVPSRFSGSGSGTDFTLTISSLQPEDFATYYCQQSYSTPLTFGQGTKVEIK
B14: 70 (antibody, V domains shown)
VH: QVQLVQSGAEVKKPGASVKVSCKASGYTFTDHYLHWVRQAPGQGLEWMGWINPNIGNTGYAQKFQGRVTMTRDTSTSTVYMELSSLRSEDTAVYYCAREPLQLGGFDYWGQGTLVTVSS
VL: DIQMTQSPSSLSASVGDRVTITCRASESISSWLAWYQQKPGKAPKLLIYAASSLQSGVPSRFSGSGSGTDFTLTISSLQPEDFATYYCQQSYSTPLTFGQGTKLEIK
B15: 33 (antibody, V domains shown)
VH: QVQLVQSGAEVKKPGASVKVSCKASGYTFTRHFIHWVRQAPGQGLEWMGWIDPNSGVTSSAQKFQGRVTMTRDTSTSTVYMELSSLRSEDTAVYYCARELSRWGFDYWGPGTMVTVSS
VL: EIVMTQSPATLSVSPGERATLSCRASQTVSSNYLAWYQQKPGQAPRLLIYGASTRASGIPARFSGSGSGTEFTLTISSLQSEDFAVYYCQQYYTTPLTFGGGTKVEIK
B16: 6 (antibody, V domains shown)
VH: QVQLVQSGAEVKKPGASVKVSCKASGYTFTSYYIHWVRQAPGQGLEWMGWMKPSSGTTGYAQKFQGRVTMTRDTSTSTVYMELSSLRSEDTAVYYCAREQWLVNDAFDIWGQGTLVTVSS
VL: EIVMTQSPATLSVSPGERATLSCRASQSVDRNYVTWYQQKPGQAPRLLIYGASTRATGIPARFSGSGSGTEFTLTISSLQSEDFAVYYCQQSYTTPYTFGQGTKVEIK
B17: 37 (antibody, V domains shown)
VH: QVQLVQSGAEVKKPGASVKVSCKASGYTFTSYGINWVRQAPGQGLEWMGWMNPNSGNTGYAQKFQGRVTMTRDTSTSTVYMELSSLRSEDTAVYYCARGSFPLVFTIFGVGDVWGQGTMVTVSS
VL: DIQMTQSPSSLSASVGDRVTITCRSSQGIRNDLSWYQQKPGKAPKLLIYLASNSHSGVPSRFSGSGSGTDFTLTISSLQPEDFATYYCLQHNSYPLTFGGGTKVEIK

Biological target: PD-L1 on CHO-K1/PD-L1/alphaAPC stimulator cells (UniProt Q9NZQ7 19-290, limits assumed)
Test: cell-based or functional assay

PD-L1 on CHO-K1/PD-L1/alphaAPC stimulator cells, sequence (Q9NZQ7 19-290 limits assumed): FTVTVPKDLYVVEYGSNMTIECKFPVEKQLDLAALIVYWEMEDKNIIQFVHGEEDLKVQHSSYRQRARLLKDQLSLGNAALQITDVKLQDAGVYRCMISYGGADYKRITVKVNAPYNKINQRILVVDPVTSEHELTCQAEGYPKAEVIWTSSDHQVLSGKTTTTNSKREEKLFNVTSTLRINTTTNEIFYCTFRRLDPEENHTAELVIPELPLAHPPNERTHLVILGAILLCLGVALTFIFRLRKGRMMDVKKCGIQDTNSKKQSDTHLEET

EC50 (nM), PD-L1/PD-1 blockade, luciferase reporter cells, 2.02 nM:
B1

EC50 (nM), PD-L1/PD-1 blockade, luciferase reporter cells, 0.9 nM:
B2

EC50 (ng/ml), PD-L1/PD-1 blockade, luciferase reporter cells, 129 ng/mL:
B2

EC50 (ng/ml), PD-L1/PD-1 blockade, luciferase reporter cells, 291 ng/mL:
B1

Biological target: T1, human PD-L1 (hPD-L1) (human, UniProt Q9NZQ7 19-290)
T1 construct: Endogenous hPD-L1 on JIMT1 (JIMT-1) cells; also called programmed death-ligand 1; CD274
Test: flow cytometry on JIMT-1 cells expressing endogenous human PD-L1; anti-human IgG Fc secondary; geometric MFI
Description: Binding of the binding agents of an embodiment of the invention to human PD-L1 (hPD-L1) on cell surfaces was assessed by incubating the binding agents with JIMT1 cells that express endogenous hPD-L1. Briefly, the binding agents were diluted serially in FACS buffer (PBS+1% FBS+5 mM EDTA, pH 7.4) at 4° C. Diluted binding agents were applied to JIMT1 cells (˜1×10⁵-2×10⁵ per well) and incubated at 4° C. […] After unbound secondary antibody was washed out, cells were resuspended in FACS buffer plus 2% formaldehyde and analyzed by flow cytometry. The intensity of fluorescence, expressed as geometric mean fluorescence intensity, was used to determine anti-PDL1 binding agent binding to hPD-L1 on cell surface.

T1 sequence (Q9NZQ7 19-290 limits assumed): as above

Binding result, binds:
B3
B4
B5
B6
B7
B8
B9
B10
B11
B12
B13
B14
B15
B16
B17
